Experimental data published in paper PMC9867944 (2023).

Biological target: human PD-1 protein (Acro biosystems) (human, UniProt Q15116 25-170)
Assay: SPR

human PD-1 protein (Acro biosystems), sequence (Q15116 25-170): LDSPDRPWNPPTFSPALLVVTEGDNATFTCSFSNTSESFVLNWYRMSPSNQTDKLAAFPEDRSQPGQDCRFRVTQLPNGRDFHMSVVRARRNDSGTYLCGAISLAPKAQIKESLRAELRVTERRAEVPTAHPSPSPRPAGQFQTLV

koff: 0.00178 s⁻¹
B1: anti-PD-1 Nb C12-Fc (Fc fusion)
chain: QVQLQELGETRCRHGGSLRLSCKVSGYTQRSYCLGWLRQAPGNEREAVAVLQHSGNFRHYADSVQGRFVISQDYTDNTVYLAMNNLKSEDAAMYYCAAVGLRVSQFNYWGQGTQVTVSS
